The target in this assay is CmMYB6_N3 (Chrysanthemum morifolium).
Chain of CmMYB6_N3 (Chrysanthemum morifolium) (main, as listed by the source): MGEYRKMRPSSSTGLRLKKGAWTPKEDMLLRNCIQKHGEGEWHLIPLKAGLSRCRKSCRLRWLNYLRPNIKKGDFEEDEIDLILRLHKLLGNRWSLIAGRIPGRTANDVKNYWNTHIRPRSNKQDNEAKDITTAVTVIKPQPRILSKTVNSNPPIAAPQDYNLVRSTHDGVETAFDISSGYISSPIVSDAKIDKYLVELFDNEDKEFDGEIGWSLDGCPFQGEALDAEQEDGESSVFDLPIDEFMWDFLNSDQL

For “CmbHLH2^Full_L (from UniProt A0A0S3J3I7 1-613) (natural protein)”, the GUS activity driven by the CmCHS promoter in tobacco leaves co-infiltrated with CmbHLH2^Full and full-length CmMYB6 (untagged effectors) was found to be 5 fold; the GUS activity driven by the CmDFR promoter in tobacco leaves co-infiltrated with CmbHLH2^Full and full-length CmMYB6 (untagged effectors) is 26 fold.

(Values after paper PMC8222801.)
